Assay results from the supplement of paper PMC10567573.

B1: WDR41 (parent)
chain: WTMQAYERNFWDPSPQLDTQQEIK
B2: GOLPH3 (parent)
chain: FAPLLDEQYDLATKRVRQLLDLDP

Variants of: B1
Assay: protein stability index of a GFP-peptide fusion (GPS, HEK-293T) (PSI 1-6); higher = more stable
Conditions: c terminus: a fixed tail appended
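Note: lentivirally expressed fusions sorted by FACS into six bins by GFP to DsRed ratio, PSI derived from sequencing read proportions per bin multiplied by bin number.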

Protein stability index, by site and new letter:
S14: I 2.17 | F 2.56 | C 2.59
Q20: K 2.28
Q4: T 1.95 | F 2.38 | H 1.89
L17: A 2.6 | M 3.2 | D 3.56 | N 2.8
E22: F 2.11 | R 2.15 | K 2.37 | Q 2.1 | P 2.34
A5: G 3.53 | H 3.47
P13: T 1.56 | W 1.76 | H 2.33 | Y 2.26
M3: Q 3.07 | E 3.89
D12: E 2.31 | H 2.73
R8: T 2.95 | F 2.54
T2: H 1.89 | V 2.14
N9: Y 2.08
Q21: Y 2.61
Q16: M 1.46 | H 2.01 | D 2.65
E7: M 1.93 | C 1.77 | Y 2.26 | W 2.39 | L 3.28 | S 2.45
F10: N 3.7
Y6: S 2.78
K24: G 2.29 | H 2.29 | D 2.83
D18: G 2.56 | H 2.2 | C 1.95
W1: F 2.44 | L 3.9 | A 3.77
W11: A 4.26 | R 4.47 | D 4.47
I23: W 2.12 | P 2.97 | D 3.61
P15: D 3.03
T19: Q 2.55 | D 2.19

Variants of: B2
Assay: as above
Conditions: c terminus: a fixed tail appended

Protein stability index: each site, then its substitutions
V16: I 2.19 | K 1.54 | D 2.02 | S 1.74 | M 1.96 | R 1.82 | W 1.37 | Y 2.58 | A 2.12 | N 2 | G 2.75 | T 2.59 | E 3.32 | Q 2.4 | H 1.65 | P 2.45 | C 2.09 | L 1.51
D10: L 1.72 | V 1.27 | G 2.15 | Q 1.46 | R 2.23 | F 2.69 | S 2.03 | H 1.58 | W 3.11 | T 1.56 | N 1.59 | M 2.24 | P 2.4 | Y 1.63 | I 1.88 | K 1.98
K14: E 2.14 | C 2.29 | G 1.99 | I 1.64 | F 1.17 | V 1.84 | Q 1.88 | N 2.02 | R 2.24 | P 2.29 | Y 1.97 | L 3.14 | W 2.28 | A 1.76 | D 2.94 | T 2.11 | S 2 | H 1.99 | M 1.59
P24: E 2.46 | R 2.28 | I 1.38 | W 1.29 | L 2.11 | N 2.46 | Q 2.33 | Y 1.45 | S 1.48 | F 3.43 | H 3.6 | A 1.81 | G 2.28 | C 2.36 | T 2.3 | M 2 | V 2.7 | D 1.87
L19: G 2.26 | M 1.78 | T 2.61 | S 2.21 | A 2.7 | H 2.09 | W 2.27 | F 1.63 | Q 2.24 | K 2.14 | C 1.49 | V 2.33 | I 2.46 | R 1.65 | D 3.22 | Y 1.85 | N 1.89 | P 2.65 | E 2.58
R17: H 1.87 | V 2.03 | I 2.22 | N 2.83 | S 2.61 | P 2.45 | F 1.93 | L 2.13 | E 2.41 | A 2.37 | K 1.8 | T 2.11 | D 3.1 | Y 1.74 | M 2.27 | G 2.45 | C 2.14 | Q 2.77
L20: P 3.2 | G 2.42 | S 2.53 | R 1.91 | C 2.27 | A 2.92 | I 2.59 | H 1.98 | F 1.83 | W 2.11 | T 2.27 | M 2.3 | V 1.94 | Q 2.24 | E 2.76 | N 2.25 | Y 1.94 | D 2.34 | K 2.59
L22: S 2.29 | Y 2.29 | I 2.45 | M 2.58 | D 2.75 | K 2.27 | T 2.21 | G 2.58 | Q 2.5 | C 1.95 | N 2.46 | F 2.61 | H 2.55 | V 2.2 | A 3.04 | R 2.26 | P 2.06 | W 1.83 | E 3.16
R15: C 2.1 | H 2.04 | A 2.56 | Q 2.11 | G 1.74 | S 1.8 | K 1.93 | E 2.43 | M 1.99 | D 2.73 | W 1.61 | F 2.06 | V 2.35 | L 2.24 | P 2.48 | T 1.76 | I 2.01 | Y 1.51 | N 2.3
D21: A 1.47 | E 2.08 | F 3.68 | Y 1.88 | N 2.12 | H 1.55 | M 1.85 | T 1.9 | I 1.45 | S 1.95 | R 1.55 | W 2.22 | V 2.79 | P 1.48 | Q 2.1 | K 1.64 | G 2.29 | L 2.1
A12: I 1.43 | E 2.66 | N 2.47 | P 2.04 | H 2.43 | M 2.8 | D 2.72 | C 1.57 | F 1.74 | G 2.12 | K 1.99 | Q 2.16 | S 2.36 | R 2.04 | L 1.82 | T 2.3 | V 1.88
D23: R 2.72 | E 1.87 | S 1.85 | A 2.07 | C 2.41 | Q 2.11 | N 2.85 | V 1.6 | G 2.65 | L 2.01 | W 3.32 | T 1.94 | I 1.62 | P 1.8 | H 1.69 | M 1.53 | Y 2.12 | K 1.78
Q18: M 2.02 | P 2.04 | T 2.21 | N 2.2 | G 2.08 | A 2.52 | F 2.67 | I 2.34 | L 2.52 | R 1.44 | C 1.38 | E 2.06 | V 2.99 | K 2.18 | S 2.11 | D 2.43 | W 2.36 | Y 1.74 | H 2.47
T13: N 1.9 | S 2.24 | P 2.22 | I 1.6 | G 3.19 | F 1.96 | C 1.54 | A 2.41 | L 2.28 | V 2.28 | H 2.18 | Y 1.28 | E 2.56 | M 1.89 | D 2.92 | Q 1.84 | R 1.57 | K 2.32
L11: C 2.26 | A 3.3 | Q 3.52 | M 3.03 | D 3.09 | W 2.82 | T 2.28 | F 1.94 | Y 2.51 | S 2.27 | H 2.73 | P 2.91 | I 2.36 | K 2.56 | G 2.38 | V 2.21 | E 3.48 | N 2.28
